According to patent US20150284428A1 (INTERK PEPTIDE THERAPEUTICS, published 2015):

Target: T1, cytoplasmic domain of β6 having the amino acid sequence HDRKEVAKFEAERSKAKWQTGTNPLYRGSTSTFKNVTYKHREKQKVDLSTDC
T1 construct: Integrin β6 subunit cytoplasmic domain; also called β6 domain; cytoplasmic domain fragment of β6
T1 chain: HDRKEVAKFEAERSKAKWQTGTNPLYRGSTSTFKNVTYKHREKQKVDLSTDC
Assay: binding assay of MAP kinase fragments with β6 cytoplasmic domain, FIG. 4

B1: p38 MAP kinase fragment HRDLKPSNLAVNEDCELKILDFGLAR (peptide)
peptide: HRDLKPSNLAVNEDCELKILDFGLAR
notes: also called fragment of p38 MAP kinase
  binding result: binds
